From the DeepSol protein solubility set

Assay: soluble on expression in E. coli; label from the status in PepcDB or PDB records

Sequence | soluble on expression in E. coli
MAHHHHHHMKEEIPQLQNLERDLLKQRNKYLSKVGNLLNKDVVISNDEDNNKVVTTWGVCKRLEVITDESSEENKSGKGGSKDGGSNKREVPSSSSISGGVVHPNSSIEGKKYYYHFDLLRKIVGANFKKGIQVAGHRGYYFTGAGFFLHNAILQYAINFLVSKNYTPVYPPFFMKKNIMEECAELDDFEETLYKIASSGGNSTATTGTASGALVSKNLNQNDELSRDDLFLIATSEQPLCALHKDETIESKYLPLKYAGVSSCFRKEAGAHGKDIRGILRVHQFDKIEQFCLSLPQTSSKVHKQMMKTCEEFYQSLNIPYRIVSIVSGALNNAAAIKYDLEGYFPSSNQYRELVSCSNCTDYQSNNLNVKYVDSSVRITDVKEDRKKKENTGDHQDDDDDDEIGSDHEEFLKNFHTESRNNVHLLNGTMVAAQRFLCCLLENYQNGEGIVVPEKLRPYMNNVDFIPFIE | not soluble
SLLEECDFPTVKDIENEFEQLKEKNVRAVARLITMAEEQAKTKEAAVTLDDKLVSLKKLNQPSPPVLGITGTGGAGKSSLTDELVRRFLNEFTDKTVAILSIDPTKQKTGGALLGDRIRMNAIHSPRVFMRSLATRGSRTEISESIRDAIAVVKAAAYDLVIVETSGIGQGDAEITEIADISMYVMTSEYGAPSQLEKIDMIDFADVIAINKFDRKGSEDALRHVRKQYQRSHQRFDEPLEAMPVYGTIASQFNDIGTNTLFAAVIDILNKKCKTSWDTSIETSKEVMKQNIIIPPERTQYLRDIVQTVKQYK | soluble
KRIVLGVGGGIAAYKSAELVRRLRDQGAEVRVVMTQGGREFITPLTLQALSGHPVHTDLLDPAAEAAMGHIELARWADLVLIAPATADLMARLVQGVANDLLTTLVLATDAQIALAPAMNQAMWRDTATQANAELLRQRGFHLFGPAAGSQACGDVGLGRMLEAEELAQRAADCFQRQALTGVHVLITAGPTQENIDPVRYITNHSSGKMGFALAEAAVEAGARVTLVTGPVHLPTPDRVQRVDVVSARDMLAACEAAMPCDLLIASAAVADYRPEVVAAHKLKKDPTSGEGLLLQLVRNPDILATLAQREDRPFSVGFAAETENLLDYAARKLKDKNLDLIVANDVANPSIGFNSDENAITVIDRDLHPSTFAQTSKGKIARQLVAFIAD | not soluble
MGSDKIHHHHHHMKHLSLEALRSFSAVIELGSMTLAGERMGRSQPAISLQLKKLEQQLGVELLTRQGSGFALTADGDVLFDYAQRMLALNDQAWAQFEPQQVSGKVRLGITSEFASSLLPKVLGQFAQVYPQVTLQVTSALSKDLLSGLGQQFDIILALREQTNKSDVLIQREELVWVGLPGLLEQPGWPMVVAPEGCIYRRRAEQSLQRAHQPYRITYTNTDFSGLTAALNSGLGITVLAKSTVPKDIPILESFSDNKPLPNPGSVNVIMRLAGGASSAASQLADYLKARI | not soluble
MIVNDSVVIHASRDIAADAAGNISVTTADLKVSVMLRVADKPERATAQLVFRALSEVEAFKMRVADEVERLQHSFEQDFETRHRELDQEVARAAEDTIAHRLLERREYVNLRAIERNDDNIILRVTGGVWVGTELYLLFEIQNRDSTPYHLDRVRVVGAGEERAGAVAFEDRTYPEGGSMGSIASGQRGRGIVAVRNARQLAGQPVRLIVSEARERRAVSVGDIRWR | not soluble
MDKLKVAELFAGVGGFRLGLENTKEKIFDVTWANQWEPSKKIQHAFDCYNSRFITGEHVNKDIALISDEEIANTKADMVVGGFPCQDYSVARSLSGELGIQGKKGVLFWQIIRFIQNTYPKYLLLENVDRLLKSPSSQRGRDFGVMLSTLNELGYNVEWRVINAADYGNAQRRRRVFIFGYKQDLEHHHHHH | soluble
SLEHFDDKSQLKRNGFYFSYNVDKENIEHWISAILFQVLKDKEDIVILSLGVDTLVGDSLGPLVGSILKRNGIPNVYGTLDRTVNASNIIKILDEIHERFKNPYILVVDAAVTAENNINDIVLRNGGFTPGFGVYRQLPTVGDFSLVGVVNKEDEREHNLIELLKKCRFDEVLKLARIISKILVLTFARMNKGDK | soluble
CRYVARNGFQGVIVQCETSDGDDIPAEDDREGPPLSRGVFYNDGYDERQGKLILGIFPTGQCPSPIGNGSGTATDVTGEPEKTFSGRGFGRTSPTGMMSSLGAQREMTGLYDLPTTNGNDGEKPADPNGEGRGFTNKNAGTSCTEANAHT | soluble
